Earlier results, collected in article PMC2683937.

Columns and labels:
TGF-β1 (Homo sapiens) = TGF-β1 (Homo sapiens) (UniProt P01137)
BMP4 (Homo sapiens) = BMP4 (Homo sapiens) (UniProt P12644)
Sequence of UniProt P12644 (P12644 293-408): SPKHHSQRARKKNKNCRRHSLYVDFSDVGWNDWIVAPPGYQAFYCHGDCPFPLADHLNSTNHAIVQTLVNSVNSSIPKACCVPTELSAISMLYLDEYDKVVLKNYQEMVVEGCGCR

Sequence of UniProt P01137 (P01137 279-390): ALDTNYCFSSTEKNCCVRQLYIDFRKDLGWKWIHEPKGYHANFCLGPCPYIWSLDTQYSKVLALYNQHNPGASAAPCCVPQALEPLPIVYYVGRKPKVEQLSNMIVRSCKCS

- Kd (TGF-β1 (Homo sapiens)): 30 nM
- Kd (BMP4 (Homo sapiens)): 5 nM
Substance: CCN2 (from UniProt P29279)
